The values that follow come from patent publication US20250277008A1, “Novel Anti-Bacterial Peptides Derived From Differentiating Stem Cells” (AGENCY FOR SCIENCE, TECHNOLOGY AND RESEARCH, priority 2022, published 2025).

≈ marks a conversion by molar mass, not a printed value. Entries after “also recorded” stand apart in the source; their conditions may differ. Like-named read-outs stand apart in the source and are kept apart here. Ends that are not written are not given here.

Assay [1] deals with P. aeruginosa (PA). The format is cell-based, Pseudomonas aeruginosa (ATCC 14213). To be noted: for minimum bactericidal concentration (MBC): PA; for minimum bactericidal concentration (MBC) / concentration required to significantly kill: MBC = lowest concentration killing ≥50% colonies vs media control. On the procedure: (§1) Examination of the potency of conditioned media obtained from adipose-derived mesenchymal stem cells (ASC-CM) and recombinant peptides against S. typhimurium, P. aeruginosa and S. aureus strains were performed by using the broth microdilution protocol from the Clinical and Laboratory Standards Institute (CLSI) guidelines (CLSI 2012). Briefly, five freshly plated bacteria colonies were grown in cation adjusted MH2 broth in a shaker incubator at 37° C., 220 RPM. Cells were grown to an optical density (OD600) of 0.20 using a Microplate Spectrophotometer. 100 μL of microbial culture containing ˜5×10^5 CFU/mL of bacteria in the respective broths were introduced into each well containing 100 μL of ASC-CM or peptides and incubated overnight at 37° C. Next, to check the bactericidal effects, 100 μL from each well was transferred and spread on sterile MH2 agar plates. The plates were incubated overnight at 37° C. and the number of colonies forming units (CFU) was observed the next day. Readings of bacteria grown in media without any treatments were normalized to 100% as media control. Minimum bactericidal concentration (MBC) was defined as the lowest peptide concentration (μM) required to kill ≥50% bacterial colonies compared to the media control.

For assay [2], the system named is 3-day old P. aeruginosa (PA) biofilm. Put plainly: Estimation of biofilm disruption (crystal violet staining). The format is cell-based, Pseudomonas aeruginosa (ATCC 14213). The method, then:
Biofilms were grown in cation adjusted MH2 broth for 72 hours in 96-well clear bottom polystyrene plates. The biofilm inoculum was prepared by subculturing overnight bacterial culture for 90 minutes until OD600 reaches ˜0.3-0.4. 200 μL of biofilm inoculum was aliquoted into each well of the 96-well plate. After 72 hours of static incubation at 37° C., the spent media was expelled, and the biofilms were treated with ASC-CM for 24 hours. […] Briefly, all the contents in the 96-well plates were removed and the wells were washed thrice with 1×PBS (Phosphate Buffer Solution) to remove the non-adherent planktonic bacteria. The attached biofilms were fixed with 95% methanol for 5 minutes. The wells were air-dried and stained with 0.1% crystal violet solution for 15 minutes at room temperature. The crystal violet solution was removed, and the wells were washed with water three times. The plates were again air-dried, and the stained biofilm was solubilized using 30% acetic acid. The absorbance of the biofilms were recorded at OD595 using Micro xMark™ Microplate Absorbance Spectrophotometer.

Another assay concerns human keratinocytes. Put plainly: 2-dimensional scratch assay. To be noted: compared to media control. The format is cell-based. On the procedure:
Cell confluency of human keratinocytes were assessed in presence of peptides in a 2D scratch assay at each timepoint by applying an ImageJ plugin PHANTAST on phase contrast time lapse images. The rate of change of keratinocytes confluency was calculated by obtaining a best fit line across the confluency vs time plot as described in. The rate of change of confluence was used as a surrogate measure for speed of migrating keratinocytes.

The subject of assay [3] is S. typhimurium (ST). Briefly: Anti-bacterial resistance evolution assay (serial passaging). The format is cell-based. To be noted: Salmonella enterica, 384 h, read-out: Minimum Inhibitory Concentration (MIC) after serial passaging. The method, then:
To determine the antibacterial effects of the ASC-CM or anti-bacterial peptides, intracellular ATP levels of the bacteria was determined by the ATP Determination Kit. As indicated in the antibacterial assay protocol, after overnight incubation of the ASC-CM or peptides with bacteria for a period of 24 hours, the culture was first spun to eliminate the extracellular ATP and other metabolic waste released from the dead bacteria. The bacterial pellet was resuspended in equivalent amount of water and the levels of intracellular ATP was calculated based on manufacturer's instructions.
The resistance development of S. typhimurium (ST) strain was assessed by sequential passaging in the presence of sub-inhibitory concentrations of gentamicin or ASC-CM. Briefly, sequential passaging of S. typhimurium (ST) cells was done with full-strength, ½-strength, and ¼-strengths of ASC-CM or sub-inhibitory concentrations of gentamicin for a period of 4 weeks. The cells grown in sub-inhibitory strengths of either conditioned media (CM) or gentamicin were diluted to A600 nm (OD600) of 0.1 and serially passaged daily with the same concentrations for 4 weeks at 37° C. with agitation at 24 h intervals.

Assay [4] concerns S. typhimurium (ST). Briefly: Antibacterial assay (CLSI broth microdilution, CFU counts). The format is cell-based. To be noted: for minimum bactericidal concentration (MBC) / concentration required to significantly kill: MBC = lowest concentration killing ≥50% colonies vs media control. On the procedure:
as §1

A further assay deals with S. aureus (SA). The format is cell-based. To be noted: for minimum bactericidal concentration (MBC) / concentration required to significantly kill: MBC = lowest concentration killing ≥50% colonies vs media control. The method, then:
as §1

Another assay concerns P. aeruginosa 14213. Briefly: Murine excisional wound infection model. The assay is classed as in vivo, mice. To be noted: wounds infected 24 hours, then ENO3 (0.2 nM) or SPARCL1 (0.067 nM) for 24 hours; vs untreated controls. On the procedure:
The murine wound infection model was carried as described with minor modifications. […] Statistical analysis was performed by Student's t-test compared to untreated (PBS). All approved procedures were performed in accordance with the 218 Institutional Animal Care and Use Committee (IACUC) in Nanyang Technological 219 University, School of Biological Sciences (ARFSBS/NIEA0198Z) for murine wound infection model.
The biofilm disruption ability of ENO3 and SPARCL1 in a murine excisional wound infection model. Excisional wounds were infected with ˜10^3 CFU of P. aeruginosa 14213 and treated for 24 hours to form the biofilms. […] Post-treatment, the wound region was excised, and the bacterial count were enumerated.

Assay [5] concerns 3-day old S. typhimurium (ST) biofilm. Put plainly: Estimation of biofilm disruption (crystal violet staining). The assay is classed as cell-based, Salmonella typhimurium. On the procedure:
Biofilms were grown in cation adjusted MH2 broth for 72 hours in 96-well clear bottom polystyrene plates. The biofilm inoculum was prepared by subculturing overnight bacterial culture for 90 minutes until OD600 reaches ˜0.3-0.4. 200 μL of biofilm inoculum was aliquoted into each well of the 96-well plate. After 72 hours of static incubation at 37° C., the spent media was expelled, and the biofilms were treated with ASC-CM for 24 hours. Post-treatment, the minimum biofilm inhibition concentration (MBIC) showing >50% reduction was determined by quantifying the levels of remaining attached biofilm, by crystal violet staining method. Briefly, all the contents in the 96-well plates were removed and the wells were washed thrice with 1×PBS (Phosphate Buffer Solution) to remove the non-adherent planktonic bacteria. The attached biofilms were fixed with 95% methanol for 5 minutes. The wells were air-dried and stained with 0.1% crystal violet solution for 15 minutes at room temperature. The crystal violet solution was removed, and the wells were washed with water three times. The plates were again air-dried, and the stained biofilm was solubilized using 30% acetic acid. The absorbance of the biofilms were recorded at OD595 using Micro xMark™ Microplate Absorbance Spectrophotometer.

The test system of assay [6] is P. aeruginosa (PA). The assay is classed as cell-based, Pseudomonas aeruginosa (ATCC 14213). To be noted: FIG. 6H.

KVNQIGSVTESIQACKLAQSN [Peptide E1A]: the “anti-bacterial activity (bacterial viability)” value (“anti-bacterial activity” for short) in the assay with P. aeruginosa (PA) [1] (E1A 0.39 μM) is listed as “more than 50%”. In addition, the “minimum bactericidal concentration (MBC)” value with P. aeruginosa (PA) [1] amounted to 390 nM. Further, the biofilm disruption activity entry in assay [2] (E1A 0.39 μM-1.56 μM) is “more than 50%”. For the same molecule, the “migration of human keratinocytes (rate of change of confluency)” value (“migration … (rate of change of confluency)” below) in the assay with human keratinocytes is reported as “increased migration of human keratinocytes; also recorded: higher migration speed”.

For “HHKAEKSSVLKSKEESH [Peptide S1A, HHKAEKSSVLKSKEESH]”, the “minimum bactericidal concentration (MBC)” value in the assay with P. aeruginosa (PA) [1] amounted to 100000 nM. Further, the “anti-bacterial activity” value with P. aeruginosa (PA) [1] (S1A 100 μM) is “more than 50%”. In addition, the biofilm disruption activity result in assay [2] (S1A 0.78 μM-3.125 μM) is on record as “more than 50%”.

Turning to `CN[C@@H]1[C@@H](O)C(O[C@@H]2[C@@H](O)[C@H](O[C@H]3O[C@H]([C@@H](C)NC)CC[C@H]3N)[C@@H](N)C[C@H]2N)OC[C@]1(C)O` (stereo partly drawn) [Gentamicin, (3R,4R,5R)-2-{[(1S,2S,3R,4S,6R)-4,6-diamino-3-{[(2R,3R,6S)-3-amino-6-[(1R)-1-(methylamino)ethyl]oxan-2-yl]oxy}-2-hydroxycyclohexyl]oxy}-5-methyl-4-(methylamino)oxane-3,5-diol, reference compound], the “migration … (rate of change of confluency)” value with human keratinocytes is listed as “significantly impaired; also recorded: no cell migration is observed”. Also, in the assay with S. typhimurium (ST) [3], the MIC is 1020 µg/mL (≈ 2140 µM).

For “KQRNKVKKIYLDEKR [Peptide S1B, KQRNKVKKIYLDEKR]”, in the assay with P. aeruginosa (PA) [1], the “minimum bactericidal concentration (MBC)” value was 50000 nM. Moreover, the “anti-bacterial activity” value with P. aeruginosa (PA) [1] (S1B 50 μM) was “more than 50%”. In addition, the biofilm disruption activity result in [2] (S1B 6.25 μM-12.5 μM) is “more than 50%”.

B1: SPARCL1: recombinant full-length human SPARCL1 peptide, SEQ ID NO: 2, identified in bacteria-primed ASC conditioned media (protein, listed as Homo sapiens)
chain: MKTGLFFLCLLGTAAAIPTNARLLSDHSKPTAETVAPDNTAIPSLRAEAEENEKETAVSTEDDSHHKAEKSSVLKSKEESHEQSAEQGKSSSQELGLKDQEDSDGHLSVNLEYAPTEGTLDIKEDMSEPQEKKLSENTDFLAPGVSSFTDSNQQESITKREENQEQPRNYSHHQLNRSSKHSQGLRDQGNQEQDPNISNGEEEEEKEPGEVGTHNDNQERKTELPREHANSKQEEDNTQSDDILEESDQPTQVSKMQEDEFDQGNQEQEDNSNAEMEEENASNVNKHIQETEWQSQEGKTGLEAISNHKETEEKTVSEALLMEPTDDGNTTPRNHGVDDDGDDDGDDGGTDGPRHSASDDYFIPSQAFLEAERAQSIAYHLKIEEQREKVHENENIGTTEPGEHQEAKKAENSSNEEETSSEGNMRVHAVDSCMSFQCKRGHICKADQQGKPHCVCQDPVTCPPTKPLDQVCGTDNQTYASSCHLFATKCRLEGTKKGHQLQLDYFGACKSIPTCTDFEVIQFPLRMRDWLKNILMQLYEANSEHAGYLNEKQRNKVKKIYLDEKRLLAGDHPIDLLLRDFKKNYHMYVYPVHWQFSELDQHPMDRVLTHSELAPLRASLVPMEHCITRFFEECDPNKDKHITLKEWGHCFGIKEEDIDENLLF
For the molecule B1, the figures for the “minimum bactericidal concentration (MBC) / concentration required to significantly kill” value with P. aeruginosa (PA) [1], with S. typhimurium (ST) [4] and with S. aureus (SA) were 268 nM, 0.0067 nM and 1000 nM, respectively. For the same molecule, the “bacterial reduction (CFU %)” value in the assay with P. aeruginosa (PA) [1] (SPARCL1 268 nM) was “more than 50%”; in the assay on S. typhimurium (ST) [4] (SPARCL1 0.0067 nM), “more than 50%”; with S. aureus (SA) (SPARCL1 1000 nM, FIG. 6F), “more than 50%”. Further, the biofilm disruption in assay [2] (SPARCL1 about 0.00134 nM) and in assay [5] (SPARCL1 about 0.00134 nM) was approximately 50% in each case. For the same molecule, in the assay on human keratinocytes, the “migration … (rate of change of confluency)” value is “increased migration of human keratinocytes; also recorded: higher keratinocytes migration rate”. In addition, the “bacterial colonies (CFU counts) in excised wound” value in the assay on P. aeruginosa 14213 is “reduction of bacterial colonies; also recorded: Reduction in bacterial colonies”.

B2: ENO3: recombinant full-length human ENO3 peptide, SEQ ID NO: 1, identified in bacteria-primed ASC conditioned media (protein, listed as Homo sapiens)
chain: MAMQKIFAREILDSRGNPTVEVDLHTAKGRFRAAVPSGASTGIYEALELRDGDKGRYLGKGVLKAVENINNTLGPALLQKKLSVVDQEKVDKFMIELDGTENKSKFGANAILGVSLAVCKAGAAEKGVPLYRHIADLAGNPDLILPVPAFNVINGGSHAGNKLAMQEFMILPVGASSFKEAMRIGAEVYHHLKGVIKAKYGKDATNVGDEGGFAPNILENNEALELLKTAIQAAGYPDKVVIGMDVAASEFYRNGKYDLDFKSPDDPARHITGEKLGELYKSFIKNYPVVSIEDPFDQDDWATWTSFLSGVNIQIVGDDLTVTNPKRIAQAVEKKACNCLLLKVNQIGSVTESIQACKLAQSNGWGVMVSHRSGETEDTFIADLVVGLCTGQIKTGAPCRSERLAKYNQLMRIEEALGDKAIFAGRKFRNPKAK
In general, MBC refers to the lowest tested concentration that kills the bacteria rather than only halting them. Read a low MBC as greater bactericidal potency. Take B2: the “bacterial reduction (CFU %)” value in the assay with P. aeruginosa (PA) [1] (ENO3 0.204 nM) is reported as “more than 50%”; in the assay with S. typhimurium (ST) [4] (ENO3 2.04 nM) it was “more than 50%”; in the assay on S. aureus (SA) (ENO3 0.102 nM, FIG. 6C), “more than 50%”. Moreover, the “minimum bactericidal concentration (MBC) / concentration required to significantly kill” value was determined as 0.204 nM with P. aeruginosa (PA) [1], 2.04 nM in the assay on S. typhimurium (ST) [4] and 0.102 nM with S. aureus (SA). Besides, the MBC against S. aureus (SA) (S. aureus, >99% reduction of viable colonies, FIG. 6G) came to 2000 nM; against P. aeruginosa (PA) [6] (>99% reduction of viable colonies), 6000 nM. The MIC against S. aureus (SA) (S. aureus, spot plate, FIG. 6G) is 2000 nM; in the assay with P. aeruginosa (PA) [6] (spot plate), 4000 nM. Also, the biofilm disruption is recorded as approximately 50% in assay [2] (ENO3 about 0.0102 nM) and “more than 50%” in assay [5] (ENO3 about 0.0102 nM). In addition, the “migration … (rate of change of confluency)” value in the assay on human keratinocytes is recorded as “increased migration of human keratinocytes; also recorded: higher keratinocytes migration rate”. In addition, the “bacterial colonies (CFU counts) in excised wound” value in the assay with P. aeruginosa 14213 is listed as “reduction of bacterial colonies; also recorded: Reduction in bacterial colonies”.
